SMILES strings stand for the structures. Where “and” joins values, the source holds several entries; their conditions need not be identical. Identical values can stand only once.

The subject of series [1] is healthy Balb/c mice. The experiment in a line: Toxicity study, hematology (same groups as A3). Format: in vivo, mouse. Particulars: 5, 11, 19, 30, 43 wk, mean±SD. The protocol:
(§1) Five different experimental groups (10 male and 10 female healthy animals per group; n = 100) were included in the radiotoxicity study and treated as follows: control group 1: 3 × vehicle (PBS + kolliphor HS 15 (1 mg/mL)); control group 2: 3 × 1200 pmol [^175Lu]Lu-NeoB; treatment group 1: 3 × 40 MBq/400 pmol [^177Lu]Lu-NeoB; treatment group 2: 3 × 80 MBq/800 pmol [^177Lu]Lu-NeoB; and treatment group 3: 3 × 120 MBq/1200 pmol [^177Lu]Lu-NeoB.
(§2) Animals received 3 injections with an interval of 7 days between each injection.
(§3) Throughout the study, the animals were observed daily to check for physical signs of toxicity and signs of discomfort, and animals were weighed 2–3 times per week. Furthermore, at week -1, 5, 11, 19, 30, and 43, blood samples were collected by submandibular puncture from all animals that were in the study at that time point. All blood samples were analyzed for hematological parameters (hematocrit; hemoglobin; red blood cell count; white blood cell count; hemoglobin; mean cell hemoglobin concentration; mean cell volume; platelet count) on the scilVet abc + counter (Covetrus).

Series [2] has as its system healthy Balb/c mice. Put plainly: Toxicity study, clinical chemistry. Format: in vivo, mouse. Particulars: 5, 11, 19, 30, 43 wk, mean±SD. The protocol:
as §1, §2
In addition, the following clinical chemistry parameters were measured: sodium, potassium chloride, calcium, glucose, creatinine, urea, alanine aminotransferase (ALT), aspartate aminotransferase (AST), alkaline phosphatase (ALP), amylase, lipase, and cholesterol, using the Roche/Hitachi cobas c systems according to the standard protocol. To reach the volume necessary for measuring the clinical chemistry parameters, the blood plasma was diluted 3–5 times with demineralized water.

The subject of the next series is mouse kidneys. Put plainly: Binary logistic regression of absorbed kidney dose versus renal histopathology. The format is in vivo. Particulars: 19 weeks, males and females combined, n = 30; 95% CI: 6.66–11.18 Gy. As to the method:
(§4) Statistical analysis was performed using GraphPad PRISM software (version 5). Significance levels were set at 5%. A simple binary logistic regression analysis was performed to determine a dose–effect relation between the absorbed dose and the histopathological findings in the kidneys using the log-likelihood ratio test as a significance indicator. The weight gain over time of control group 2 and treatment groups 1, 2, and 3 was compared to control group 1 by performing a two-way multiple comparison analysis of variance (ANOVA) with a Bonferroni correction. Significant outliers in the blood values set were detected with the Grubbs’ test and excluded from the data set. At a given time point, the measurements of all study groups were compared by performing a one-way ANOVA and in case of significance a Tukey test to correct for multiple comparisons. All data are represented as mean ± standard deviation (SD).
Binary logistic regression analysis was performed to determine a dose–effect relationship for the incidence of renal toxicity (Fig. 5).

The nature of series [3]: Toxicity study, body weight (same groups as A3). The format is in vivo, mouse. As to the method:
as §3, §4

The subject of the next series is pancreas. Particulars: 100 days after once weekly for 3 consecutive weeks 37 MBq/400 pmol; cited from earlier work. An excerpt: As mentioned above, the GRPR-expressing pancreas is often named as a potential dose-limiting organ for GRPR-targeting radionuclide therapy. Pancreatitis can be diagnosed by an increase in serum lipase and amylase levels, neither of which were consistently found in this study. Furthermore, no histopathological signs of continuous or severe pancreatic toxicity was observed.

For `CC(C)CC(CC(C)C)NC(=O)[C@H](Cc1cnc[nH]1)NC(=O)CNC(=O)[C@@H](NC(=O)[C@H](C)NC(=O)[C@H](Cc1c[nH]c2ccccc12)NC(=O)[C@H](CCC(N)=O)NC(=O)[C@@H](Cc1ccccc1)NC(=O)COCC(=O)Nc1ccc(CNC(=O)CN2CCN(CC(=O)O)CCN(CC(=O)O)CCN(CC(=O)O)CC2)cc1)C(C)C` [[^177Lu]Lu-NeoB, metal not drawn], the WBC was 6.20 ± 2.24 103/mm3 and 7.60 ± 3.77 103/mm3 and 6.80 ± 1.64 103/mm3 and 9.70 ± 2.96 103/mm3 and 7.20 ± 3.97 103/mm3 in the series with healthy Balb/c mice [1] (female, treatment group 1); 9.10 ± 3.17 103/mm3 and 5.89 ± 2.56 103/mm3 and 7.97 ± 2.09 103/mm3 and 6.74 ± 1.77 103/mm3 and 8.98 ± 1.67 103/mm3 with healthy Balb/c mice [1] (female, treatment group 2); 8.08 ± 2.38 103/mm3 and 8.53 ± 1.17 103/mm3 and 8.12 ± 1.98 103/mm3 and 9.77 ± 2.82 103/mm3 and 7.53 ± 0.83 103/mm3 in the series with healthy Balb/c mice [1] (male, treatment group 1); 7.30 ± 2.24 103/mm3 and 6.65 ± 2.80 103/mm3 and 9.61 ± 1.52 103/mm3 and 8.68 ± 0.34 103/mm3 and 11.13 ± 3.50 103/mm3 in the series on healthy Balb/c mice [1] (male, treatment group 2). Also, the “Alk. Phosphatase” value with healthy Balb/c mice [2] (female, treatment group 1) was 104.70 ± 11.61 U/L and 85.71 ± 8.98 U/L and 68.75 ± 4.76 U/L and 75.00 ± 0.00 U/L and 86.67 ± 16.07 U/L; in the series with healthy Balb/c mice [2] (female, treatment group 2) it was 88.75 ± 7.50 U/L and 96.60 ± 11.73 U/L and 92.57 ± 8.90 U/L and 75.00 ± 8.16 U/L and 87.50 ± 8.66 U/L; in the series with healthy Balb/c mice [2] (female, treatment group 3) it was 96.00 ± 15.81 U/L and 93.00 ± 4.65 U/L and 81.43 ± 10.69 U/L and 90.00 ± 9.13 U/L and 110.00 ± 26.46 U/L; in the series with healthy Balb/c mice [2] (male, treatment group 1) it was 114.00 ± 8.28 U/L and 98.57 ± 4.04 U/L and 70.00 ± 0.00 U/L and 85.00 ± 10.00 U/L and 68.33 ± 20.82 U/L; in the series with healthy Balb/c mice [2] (male, treatment group 2), 75.00 ± 15.81 U/L and 112.40 ± 16.22 U/L and 96.86 ± 9.44 U/L and 85.00 ± 0.00 U/L and 80.00 ± 0.00 U/L; in the series with healthy Balb/c mice [2] (male, treatment group 3) it was 103.20 ± 13.73 U/L and 99.43 ± 5.59 U/L and 83.75 ± 7.50 U/L and 87.50 ± 8.66 U/L and 80.00 ± 17.80 U/L. The Urea in the series on healthy Balb/c mice [2] (female, treatment group 1) is 6.84 ± 1.27 mmol/L and 7.24 ± 1.10 mmol/L and 7.29 ± 1.04 mmol/L and 7.00 ± 1.78 mmol/L and 6.00 ± 0.00 mmol/L; in the series on healthy Balb/c mice [2] (female, treatment group 2), 8.13 ± 2.95 mmol/L and 9.48 ± 0.83 mmol/L and 7.41 ± 0.62 mmol/L and 6.64 ± 1.07 mmol/L and 7.50 ± 0.71 mmol/L; with healthy Balb/c mice [2] (female, treatment group 3), 8.94 ± 1.32 mmol/L and 7.97 ± 1.26 mmol/L and 8.50 ± 1.80 mmol/L and 9.25 ± 2.40 mmol/L and 8.63 ± 2.56 mmol/L; with healthy Balb/c mice [2] (male, treatment group 1), 7.44 ± 0.85 mmol/L and 6.60 ± 0.60 mmol/L and 7.00 ± 0.00 mmol/L and 7.50 ± 0.00 mmol/L; in the series with healthy Balb/c mice [2] (male, treatment group 2), 7.33 ± 1.26 mmol/L and 7.46 ± 1.14 mmol/L and 7.24 ± 1.41 mmol/L and 7.13 ± 0.85 mmol/L and 8.00 ± 1.35 mmol/L; in the series with healthy Balb/c mice [2] (male, treatment group 3), 7.59 ± 1.51 mmol/L and 6.77 ± 0.71 mmol/L and 7.25 ± 0.87 mmol/L and 6.50 ± 0.00 mmol/L and 6.75 ± 1.04 mmol/L. In the series on mouse kidneys, the “ED50 of absorbed kidney dose for hydronephrosis” value was determined as 8.65 Gy. In series [3] (female treatment group 2, by the end of the study), the “Weight gain versus control group 1” value is “significantly higher weight gain”. Further, the “Weight gain versus control groups” value in series [3] (male treatment group 2, first half of the study) was “significantly less pronounced weight gain”; in series [3] (male treatment group 3, first half of the study), “significantly less pronounced weight gain”. The Pancreatic alterations result in the series with pancreas is listed as “no pancreatic alterations”.
